Experimental data from publication PMC10855866, “Structural Analysis of Breast-Milk αS1-Casein: An α-Helical Conformation Is Required for TLR4-Stimulation” (International Journal of Molecular Sciences, 2024).
Blank lines part the entries; values can stand above or below the molecule they belong to.

Legend:
αS1-casein (Bos taurus) = αS1-casein (Bos taurus) (UniProt P02662); test: SPR; conditions: cited from earlier work
[1] = target: T1, Toll-like receptor 4 (TLR4) (UniProt O00206 24-839); test: flow cytometry on cells; TLR4+ cells (HEK293 transfected with TLR4/MD2/CD14) and TLR4- cells incubated 24 h with 500 nM αS1-casein or a truncated variant; detected with murine anti-His6 IgG and Dylight633 anti-murine IgG; conditions: one partner purified
T1 construct: Toll-like receptor 4 on the surface of transfected HEK293 cells; The TLR4+ cells also express MD2 and CD14; also called TLR4^+ cells; source: HEK293 cells transfected with TLR4/MD2/CD14 (InvivoGen), on cells
T1 sequence (O00206 24-839): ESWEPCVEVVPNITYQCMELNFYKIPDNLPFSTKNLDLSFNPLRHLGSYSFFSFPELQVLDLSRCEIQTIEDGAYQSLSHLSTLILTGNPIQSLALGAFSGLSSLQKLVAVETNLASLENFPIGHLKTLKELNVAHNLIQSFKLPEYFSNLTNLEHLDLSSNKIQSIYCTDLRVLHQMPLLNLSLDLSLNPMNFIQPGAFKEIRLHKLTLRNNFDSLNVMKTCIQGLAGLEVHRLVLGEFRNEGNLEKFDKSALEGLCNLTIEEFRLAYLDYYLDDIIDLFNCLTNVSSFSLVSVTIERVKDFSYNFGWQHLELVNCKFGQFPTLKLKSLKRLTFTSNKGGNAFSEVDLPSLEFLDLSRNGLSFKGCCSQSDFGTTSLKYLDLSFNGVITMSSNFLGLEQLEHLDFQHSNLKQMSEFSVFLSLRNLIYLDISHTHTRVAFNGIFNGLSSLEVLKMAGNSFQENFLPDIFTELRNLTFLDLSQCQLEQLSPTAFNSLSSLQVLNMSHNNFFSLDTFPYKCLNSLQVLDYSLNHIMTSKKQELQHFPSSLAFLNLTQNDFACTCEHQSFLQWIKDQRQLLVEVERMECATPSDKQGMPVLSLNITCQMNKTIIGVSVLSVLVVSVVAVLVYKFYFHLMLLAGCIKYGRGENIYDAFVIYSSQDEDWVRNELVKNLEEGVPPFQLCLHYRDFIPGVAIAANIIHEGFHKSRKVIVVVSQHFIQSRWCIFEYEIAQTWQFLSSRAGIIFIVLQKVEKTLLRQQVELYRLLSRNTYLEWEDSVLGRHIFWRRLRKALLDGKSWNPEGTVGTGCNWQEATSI

[2] = target: T1, Toll-like receptor 4 (TLR4); test: cell-based or functional assay
[3] = target: the molecule itself; test: SPR; αS1-casein or P-αS1-casein immobilised on a CMDP-5 chip (450 µRIU); the same protein injected at 0.625 to 5 µM in 10 mM HEPES, 150 mM NaCl, pH 7.2 (5 min, 5 µL/min); KD could be due to a mixture of dimer, tetramer and higher oligomer
[4] = target: the molecule itself; test: MST; FITC-αS1-casein (25 nM) mixed with unlabelled αS1-casein in serial dilution; sonicated 15 min, incubated 1 h at 37 °C; 20 mM HEPES pH 7.2, 0.5% BSA, 0.0025% Tween-20; oligomer step not resolved
[5] = target: Toll-like receptor 4 (TLR4) (UniProt O00206)
Chain of Toll-like receptor 4 (TLR4) (UniProt O00206) (O00206 24-839): as above

Chain of αS1-casein (Bos taurus) (P02662 16-214): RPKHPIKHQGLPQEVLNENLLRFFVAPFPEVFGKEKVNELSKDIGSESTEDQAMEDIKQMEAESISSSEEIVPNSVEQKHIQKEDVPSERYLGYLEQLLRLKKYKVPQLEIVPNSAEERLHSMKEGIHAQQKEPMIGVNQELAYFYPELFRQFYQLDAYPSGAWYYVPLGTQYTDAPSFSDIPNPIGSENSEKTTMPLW

Molecule: αS1-casein (from UniProt P02662)
Kd (αS1-casein (Bos taurus)): 2000 nM

B2: recombinant human αS1-casein (natural protein, UniProt P47710 16-185, looked up)
chain: RPKLPLRYPERLQNPSESSEPIPLESREEYMNGMNRQRNILREKQTDEIKDTRNESTQNCVVAEPEKMESSISSSSEEMSLSKCAEQFCRLNEYNQLQLQAAHAQEQIRRMNENSHVQVPFQQLNQLAAYPYAVWYYPQIMQYVPFPPFSDISNPTAHENYEKNNVMLQW
notes: human αS1-casein (CSN1S1), from plasmid pET TS001; C1 and C2, made from the same plasmid, begin at residue 16 and N1-N4 end at 185, so it probably lacks the signal peptide (1-15); Not phosphorylated (made in E. coli); also called full-length αS1-casein; full-size αS1-casein; source: E. coli, purified (NTA column chromatography); not shown: His6, N-terminal, kept
IL-8 secretion of TLR4+ cells after 24 h with 15 nM protein (sandwich ELISA) [2]: 23.3 ng/mL
Kd [3]: 2000 nM
stoichiometry N [3]: 4
Kd [4]: 2200 nM

B3: in vitro phosphorylated αS1-casein (P-αS1-casein) (natural protein, human, UniProt P47710 16-185, looked up)
chain: RPKLPLRYPERLQNPSESSEPIPLESREEYMNGMNRQRNILREKQTDEIKDTRNESTQNCVVAEPEKMESSISSSSEEMSLSKCAEQFCRLNEYNQLQLQAAHAQEQIRRMNENSHVQVPFQQLNQLAAYPYAVWYYPQIMQYVPFPPFSDISNPTAHENYEKNNVMLQW
modifications: phosphorylated in vitro; the sites of this preparation are not stated
notes: human αS1-casein (CSN1S1), the recombinant protein of m1 after in vitro phosphorylation; source: phosphorylated in vitro
Kd [3]: 500 nM

B8: synthetic peptide V77-E92 of αS1-casein (peptide)
peptide: VAEPEKMESSISSSSE
IL-8 secretion of TLR4+ cells after 24 h with 1.5 µM peptide (sandwich ELISA) [5]: 0.95 ng/mL

Second part, the molecule after the results:

fluorescence intensity on TLR4+ cells over TLR4- cells (fold) [1]: 2.3 fold
IL-8 secretion of TLR4+ cells after 24 h with 15 nM protein (sandwich ELISA) [2]: 5.2 ng/mL
B1: αS1-casein truncated variant C1 (domain or fragment, human, UniProt P47710 16-163, looked up)
chain: RPKLPLRYPERLQNPSESSEPIPLESREEYMNGMNRQRNILREKQTDEIKDTRNESTQNCVVAEPEKMESSISSSSEEMSLSKCAEQFCRLNEYNQLQLQAAHAQEQIRRMNENSHVQVPFQQLNQLAAYPYAVWYYPQIMQYVPFPP
notes: human αS1-casein, residues 16-163; Amplified from pET TS001, which codes for an N-terminal His6 tag; also called pET C1; source: E. coli, purified (NTA column chromatography); not shown: His6, C-terminal, kept

IL-8 secretion of TLR4+ cells after 24 h with 15 nM protein (sandwich ELISA) [2]: 4.8 ng/mL
B4: αS1-casein truncated variant N2 (domain or fragment, human, UniProt P47710 57-185, looked up)
chain: REKQTDEIKDTRNESTQNCVVAEPEKMESSISSSSEEMSLSKCAEQFCRLNEYNQLQLQAAHAQEQIRRMNENSHVQVPFQQLNQLAAYPYAVWYYPQIMQYVPFPPFSDISNPTAHENYEKNNVMLQW

IL-8 secretion of TLR4+ cells after 24 h with 15 nM protein (sandwich ELISA) [2]: 7.5 ng/mL
B5: αS1-casein truncated variant N1 (domain or fragment, human, UniProt P47710 35-185, looked up)
chain: EPIPLESREEYMNGMNRQRNILREKQTDEIKDTRNESTQNCVVAEPEKMESSISSSSEEMSLSKCAEQFCRLNEYNQLQLQAAHAQEQIRRMNENSHVQVPFQQLNQLAAYPYAVWYYPQIMQYVPFPPFSDISNPTAHENYEKNNVMLQW

IL-8 secretion of TLR4+ cells after 24 h with 15 nM protein (sandwich ELISA) [2]: -2.5 ng/mL
B6: αS1-casein truncated variant N4 (domain or fragment, human, UniProt P47710 93-185, looked up)
chain: EMSLSKCAEQFCRLNEYNQLQLQAAHAQEQIRRMNENSHVQVPFQQLNQLAAYPYAVWYYPQIMQYVPFPPFSDISNPTAHENYEKNNVMLQW

fluorescence intensity on TLR4+ cells over TLR4- cells (fold) [1]: 2.2 fold
IL-8 secretion of TLR4+ cells after 24 h with 15 nM protein (sandwich ELISA) [2]: 5.2 ng/mL
B7: αS1-casein truncated variant C2 (domain or fragment, human, UniProt P47710 16-145, looked up)
chain: RPKLPLRYPERLQNPSESSEPIPLESREEYMNGMNRQRNILREKQTDEIKDTRNESTQNCVVAEPEKMESSISSSSEEMSLSKCAEQFCRLNEYNQLQLQAAHAQEQIRRMNENSHVQVPFQQLNQLAAY
notes: human αS1-casein, residues 16-145; Amplified from pET TS001, which codes for an N-terminal His6 tag; also called pET C2; source: E. coli, purified (NTA column chromatography); not shown: His6, C-terminal, kept
